Here are results for one molecule from patent publication US20170088605A1.

Assay [1] concerns the target BKV serotype I infectious virus (VP1) (BK virus serotype I) (UniProt P03088).
Assay [2] deals with BKV serotype II chimeric infectious virus (VP1 of isolate SB) (BK virus serotype II).
Assay [3] addresses BKV serotype III chimeric infectious virus (VP1 of isolate AS) (BK virus serotype III).
Assay [4] concerns the target BKV serotype IV chimeric infectious virus (VP1 of strain ITA-4) (BK virus serotype IV).

BKV serotype I infectious virus (VP1) (BK virus serotype I), sequence (P03088 whole entry): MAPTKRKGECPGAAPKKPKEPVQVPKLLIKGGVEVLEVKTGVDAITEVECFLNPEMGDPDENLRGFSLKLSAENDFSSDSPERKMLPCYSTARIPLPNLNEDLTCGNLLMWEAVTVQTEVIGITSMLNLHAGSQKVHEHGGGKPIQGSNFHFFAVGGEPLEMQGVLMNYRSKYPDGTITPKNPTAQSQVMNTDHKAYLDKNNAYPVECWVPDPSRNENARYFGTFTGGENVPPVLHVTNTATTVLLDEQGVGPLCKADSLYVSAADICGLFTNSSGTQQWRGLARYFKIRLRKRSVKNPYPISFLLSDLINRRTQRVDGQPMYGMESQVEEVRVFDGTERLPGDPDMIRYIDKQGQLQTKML

B1: P46F4 (antibody, V domains shown)
VH: QVQLQESGPGLVKPSQTLSLTCTVSGGSISNGGYYWSWIRLHPGKGLEWIGCIHYSGGTYYNPSLKSRVTVSLDTSKNQFSLNLISVTAADTAIYFCARALIAAPGISDWFDPWGQGTLVTVSS
VL: QSVLTQPPSVSAAPGQKVTISCSGSNSNVGHNYVSWYQQLPGTAPKLLIYDNNKRPSGIPDRFSGSKSGTSATLGITGLQTGDEADYYCGTWDSSLSAGVFGGGTKVTVLG
Regarding B1, the neutralization EC50 in assay [1] is 0.004 µg/mL; in assay [2], > 100 µg/mL; in assay [3], > 100 µg/mL; in assay [4], > 100 µg/mL. For the same molecule, the neutralization EC90 in assay [1] is 0.29 µg/mL; in assay [2] it was > 100 µg/mL; in assay [3], > 100 µg/mL; in assay [4] it was > 100 µg/mL.
